These results are taken from the domain aggregation screens of Martell et al. (2025).

This series can be described thus: soluble fraction after stress (log2 fold change); higher = more stays soluble; pooled small domains, quantitative proteomics. As to conditions: stress: 50 degC. The method in brief: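 Pooled custom libraries of small protein domains were each held under stress at 50°C. The read-out, high-throughput quantitative proteomics, tracked how much of each protein stayed soluble. This is reported as a base-two log fold change used to indicate aggregation propensity. Higher values mean more protein remains in solution.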

With “HMEALDPLTAREQEVLEMILSGKSNREIAAELHITENTVKTHAQSIYSKYDVRGRAKLISLLLKGEA”, the “soluble fraction (log2)” value is -0.102.

For the sequence “HMVEGVSLVEIYVDENSKYNGKLLSEIPKKENTLVIMIQRGEQVIIPHGNIRLESGDMLVVSKTEI”, the “soluble fraction (log2)” value is -0.649.

In the case of “HMTTRQREALLDYLSRHPDQPLTVREIAAGVEPDGVSLSAVYRNLAELEAAGLIRRESRPGSREAVVQYV”, the “soluble fraction (log2)” value is 0.049.

On to “HMNEYHRNISDEEFVRDIKETAIKLKKETLTGVEYSQNGKYHASTIIHRFGSWKKALELAELNTK”, for which the “soluble fraction (log2)” value is -0.056.

For “HMGLSAALKARLREVINEMAKSGAQPKLREWALAEGIGNFAKPETPEAAEAVIAKAQELLAEA”, the “soluble fraction (log2)” value is 0.547.

For “HMAGTELASIKEIQSLVDRSEEALSARNFFWPKDKSESMLLSFRNMFSRLKLTKMDVQIFHGIFKVMEKS”, the “soluble fraction (log2)” value was -0.0116.

Consider “HMSSWEEQLKIWAKNELASGNTDILARATVSFEQILIEAALTHTGGRKKTAAELLGWGRNTLTRKIKELHI”, for which the “soluble fraction (log2)” value is -0.29.

In the case of “HMEQVSDPALLERYAKEVVAASPKAVADYQAGNAKAFQALVGQMMKRTKGKGDPALIREILQKL”, the “soluble fraction (log2)” value stood at 0.0957.

With “HMGPEAFPVPYIVDIELDRAIYVIEQSGFIVGQKLEANDDNVPRGFVISQNPAAGTKLGPNSVVDLVISSG”, the “soluble fraction (log2)” value is -1.02.

For “HMDPASYEARLSTLREQGAQQLDPVRFQYLATLAQRLPTQTPGVALILANKLRAGLSDYEQRLSEAGS”, the “soluble fraction (log2)” value is -0.0289.

Take “HMSVVKPIYIGMMTSEVEAIMGKPFEVITNNNSKNNQLWIYKYQDKRSVMLTFTNYKLIKIE”: the “soluble fraction (log2)” value was -0.819.

“HMNTTLQLDTILRLEKNAHLLENFVRAGFTDSELGKLTDADLLQIGVPKIGDRRRLLAALAERAH”: the “soluble fraction (log2)” value is -0.589.

In the case of “HMKMSVKNEIISLLEKNRDTSISGQVIADSLNVTRAAVWKAIKVLKEEGYNIDGTPNKGYILLGNN”, the “soluble fraction (log2)” value was -0.368.

As to “HMTRLSSREAQVISLVRDGMTNQQIAERLELSPLTIKNHVQNILRKLDVSNRAQAVAKAVKARLI”, the “soluble fraction (log2)” value was -0.3.

For the sequence “HMIKVASVDGASDELAHEIREIMPLDFPVSYFDLDIKYLHKVLNDIPAVESAAIKVTVSGVLQIDISER”, the “soluble fraction (log2)” value came out at 0.43.

“HMIDIDTILKKYKPGRRDELIPLMQEIQEVYGHLSEEAVVKIGTYVGLSTTKIYGLATFYDQFRF”: the “soluble fraction (log2)” value was -1.24.

For the sequence “HMDEYTREQFVADMEEGRVREVTIHPNSEVPTGYIRVELANGADMKLYVTDIVEAEELVRSYGFDPPVRDV”, the “soluble fraction (log2)” value came out at 0.128.

Take “HMITTWAGKATTDVYGRVDANPKADAVLVIKTGWTVQVVGSKTAPDGGTWYKLIYNGKTMYANSKFIVK”: the “soluble fraction (log2)” value is -1.16.

Consider “HMGIKSSASLQEAAEKAQSAYYDIEHSGVATAVDIQRAWVAMVAAQIDAGEKLDSGTITLYERLKTST”, for which the “soluble fraction (log2)” value was 0.0423.

Regarding “HMYRYYSTLRPITPGAYPKPADNPAMLIHNFDNREYVGKIGREAWGYVEYNNPLTKEQIEAFDFVAE”, the “soluble fraction (log2)” value amounted to 0.0677.

Take “HMDTQITPNKAKEIALAHAGVTEAAANFKKIKLDNKNGKSIYEIEFIANKSRYEFIVDAKNGSIIKFEK”: the “soluble fraction (log2)” value was determined as 0.0656.

Turning to “HMEKDKGTILKEARIKKGLTQEQLANNINYTRQYISKWENNISLPKDIQTLKKISNLLSIPLKELLPEDYL”, the “soluble fraction (log2)” value is -0.109.

Consider “HMDSMATVPDLVGKTEDEAKALANDAHLGVQMAGEEASDQEKGKISRQETAAGTQVAEYTTVKYWVSTGTQ”, for which the “soluble fraction (log2)” value came out at 0.124.

Turning to “HMLQYSQEIEEAQKILQNLGLYKGEIDGINGVNTKSAIKEFQRKSGLIIDGILGPNTTSALSKGAESYITV”, the “soluble fraction (log2)” value was 0.112.

For the sequence “HMGEGRVRLAQEAANRFMTAMAGDRPGFEEAGRALFAGDRARFHAETEGWPEDIRDHARRLAEPALQ”, the “soluble fraction (log2)” value turned out to be 0.0288.

With “HMSRQREWIYDYIQSHPDRHMSVEEIYEGLKAENREVSVATVYRNLKILQDENRIASLMLESGKQVFDK”, the “soluble fraction (log2)” value was -0.371.

As to “HMSLEDNEVIQRMKVILDRFDEETAVDRTTAFKAVLDHIGKMDAESKTLEHMAEMLEALLDKVLEE”, the “soluble fraction (log2)” value was -0.237.

Turning to “HMADLTIDGVEYTKVSPTGTLTLEKVYTKNVTPADGQYYIQTGTKTVRVATDAEVAVIKAGGF”, the “soluble fraction (log2)” value was 0.0157.

For the sequence “HMDIPDIGHNVRIEVDGHNGKTTHEGIILHPAAPNHITIKLANGYNASYKLEEIINIEILGELGDDSKI”, the “soluble fraction (log2)” value was -0.0692.

Take “HMTEAIDVPNLVGQNYSDVKSNSSYKFNWDIINVYDSGKPEGEIIKQEPEAGSKKVKENAVITLTVN”: the “soluble fraction (log2)” value came out at 0.278.

For the sequence “HMHDPRLPLPGTLLAREFQGRDIVVKVLDNGFEFDGRRYKSLSAIAQEVTGSKWNGFLFFGI”, the “soluble fraction (log2)” value is -0.857.

With “HMETGLSNYEFKRIREQAEALLSDGQVRRINDLVDSIKNENAEKVIRVIRFLIDTEELILEDDRVSAKKS”, the “soluble fraction (log2)” value was -0.0558.

For the sequence “HMHGESIPIPNILHKRYADAEQIVNNLRLEIEVTDTGYVRSLPPGAILEQTPGPGERVKSGHIIYVTINAA”, the “soluble fraction (log2)” value was -0.291.

“HMIYGNGVTDLKDLANGATIIIPADDSNETRALFLLQQEGLIKLPDDADAAKGVSTLDIVDGGGWVTSM”: the “soluble fraction (log2)” value stood at 0.0431.

As to “HMSKEGLASLLEDINGLGAIRRKTLIDHFGSVAKIRGARPEEIAALPGMGRKIAEHILASLRED”, the “soluble fraction (log2)” value was -0.251.

Turning to “HMGDPMAIMQLSSNTTPEYWEAYQKYHIQEYEQSNFIRYVNGISVLDDDFVDKVLITIDQHGRIFSELKS”, the “soluble fraction (log2)” value is -2.41.

As for “HMFYPIAHTLTKLNIRSGPGEQYQKLATFENNHDLVVLTQQNEWVQVRGKSDEQVIIGWVHSSFLSPT”, the “soluble fraction (log2)” value was -1.09.

Consider “HMVDYSMEDSVWNNKKEHVNEWFDANPEHEGRRVIVDGLFAIGDAQPDLRKRHWSSISVVFADLDNSPIG”, for which the “soluble fraction (log2)” value is -0.356.

For “HMHQGTIEVGSIVHIEGQKALGTILSLTQREAIVGLGALKTTIPLKRLHLATEAEARRHKKSVTPQEAV”, the “soluble fraction (log2)” value was found to be 0.0611.

“HMDTTLFGLFQNVILTQEDYEELSRTIVEDLDGLIDRLSAYMTSTGKTYKNHKATLLSWYLQDEKKFK”: the “soluble fraction (log2)” value is -1.82.

In the case of “HMTTKGGLVRDTVLNEFRDSEFTRREVELVLNGVASERTIRGALSEMVERGELTQVNFGISTRYRLNQ”, the “soluble fraction (log2)” value was -0.385.

“HMLFRGNGFNTLYDKQLRITQQGEFKDGRLWDGKYYRYSKAGELVRIEIYEQGRYAGNGVITDEDKA”: the “soluble fraction (log2)” value is -0.845.

On to “HMNQNHFLDSVVEFAKDEASRAFFQKAVKKLGEGLVEEAMGEVKMREADGSVNSRAPYFIALLENWMENR”, for which the “soluble fraction (log2)” value came to 0.0128.

With “HMFEQFEVENLQELQQEWGDKFNHNLEMARRAFMNFATPEAVKVLEETGMGNHPELLKVFARIGEVLAED”, the “soluble fraction (log2)” value is -0.536.

In the case of “HMTNKSKQRRNEILRASQELFNKKGFHDTSINDIMRRVGAAKGVFYYYFETKDQILDTLIEQHIA”, the “soluble fraction (log2)” value is -0.907.

Turning to “HMEFEKYKYHYIFDDVLGLRIVWDRGKEHFSYFVNEELAEKSRKSDKDALEVMFYLEHKRWPEEGELENY”, the “soluble fraction (log2)” value was -0.687.

With “HMDIADKLTKREFEIFIAIAMNKSRFDIANELGLSAKTVSNGLTVIKRKLNAVPSQFSAIAAKHGYIG”, the “soluble fraction (log2)” value is -2.66.

As to “HMFDGYQWLKRDIIRGVYQPEEKLRMSLLTNRYGLGVGPLREALSQLVAEHLVTVVSQKGYRVAPM”, the “soluble fraction (log2)” value is -0.112.

On to “HMAPKRIVLRFGKDISDKPIIYYLVKDYDLVINILKANVNPNKEGTLVLELSGENYDKGIEFLISQGVTVQ”, for which the “soluble fraction (log2)” value is -1.56.

On to “HMFEDEPSEREIRISTLLAAFLKQEDGGTAVSRERFLKENSDVAEDLQILLEMADMIQEMAGP”, for which the “soluble fraction (log2)” value was -0.418.

Regarding “HMEQAMIVILKENPDRRQLEFLTGWLQKQQIGIHISEGAHQTVLGLVGDATRLDIDMLKQMEIVEDVKRVQ”, the “soluble fraction (log2)” value was -0.0829.

“HMDYKLDVNFPEMYLEQIPAEKRAALIQILEQDPRPSYQKDPVRIYGMSYAGMEIHFRVDKETLYVTEVER”: the “soluble fraction (log2)” value was -0.996.

Take “HMHLNVYRDEDEAMLAFKDHLIGTHQPIRVRVEKALPDGTMGHKIVDTTIGRIVFNHNIPQD”: the “soluble fraction (log2)” value was -0.189.

“HMRTKLEEAVEWLQEQLNDGPVLSKELESEAKAADILPGTLRRAGEALGVVKQKQGGRGGWTWSLPR”: the “soluble fraction (log2)” value was 0.14.

As for “HMIYKLIADRLKNRINSDEFEVGDALPSEKALAGELEVSVMTIRKALTLLESEKLIVKRHGSGSYVARKSN”, the “soluble fraction (log2)” value was -0.429.

Consider “HMIRDVDYNTFVSMVQEGKVGQVEIQEQNNRILFTDKDERTVYKTAMVPDSDLISRLLEAGVSTS”, for which the “soluble fraction (log2)” value was found to be 0.204.

Regarding “HMNLRLKEVLDEKNMSLVTLSEKTGIEKGNLSAISNNKKNPTVETLSKIAKALQISLAELFESPP”, the “soluble fraction (log2)” value turned out to be 0.303.

In the case of “HMGGGVERLTPRQREVLGYMAEGRSNSWIAGAIGFSEKAVVQHTSKIYDALGLAVDADDHRRVLAVLRYLT”, the “soluble fraction (log2)” value is -1.44.

“HMRQISDPTALASMVDKVIEDNPSAVADYRRGESKALGFLIGRVMQSSGGKANPKMIRGLLVKNLES”: the “soluble fraction (log2)” value was -0.0922.

Regarding “HMNSKMTYSDLIGNIEQGNVSSVELASDGKSATVTLTDNSQKQVNIPSLDSFVTYVQDHIKAGTLSVEE”, the “soluble fraction (log2)” value was 0.000127.

For the sequence “HMSKSIEEIYDEAIRSLANEEYDSAKKLFSYLIDNFSDPEKLPLSLFWLGEIEFSSSNFDQSKIHYIE”, the “soluble fraction (log2)” value was -0.0445.

Regarding “HMKAKPTLLTPYEERLKGWLETDSRRPKRDRRTGLALFAKLQQEGFTGSYTRVTEYIRRWRDSGG”, the “soluble fraction (log2)” value was -3.01.

“HMGSTDTLEDALEAAEKISYPVIIKATAGGGGRGMKVASSLEELKKVYHTTKLEAKNAFGNDQVYIEKYL”: the “soluble fraction (log2)” value came out at 0.116.

With “HMNKFADLAGNIIYNENGVEVFNFGKYKGQPVAEVFKKDIGYYGWIQNADFPRYTKKVFTAIQLKSK”, the “soluble fraction (log2)” value was -1.22.

Consider “HMTWIAEIELRLMGNGAVTGAKIVKSTDLKDVDAAIYRAALEASPYPAPESGIGGRFTIKLKY”, for which the “soluble fraction (log2)” value was 0.198.

With “HMKTTVEVSPIARPGAVASGSVKFGSGVTAEWMLDQYGRLGLDKPTGKPTEQDIKEFQIELQKAL”, the “soluble fraction (log2)” value was found to be 0.165.

With “HMDLHSQVFESYERKIREVLREGPLTFEEILHAFALKRHETVAQVITYLMDEGKMSDSGDGKLIYSG”, the “soluble fraction (log2)” value was -0.558.

Take “HMDPYEYQLELEKLINNATELNKKYNYDPLKDKILAADAVKNSLETYVLQNYIVALENEIKQTLNQYQIL”: the “soluble fraction (log2)” value was -0.44.
